According to US20100298224A1 (UNIVERSITE PARIS SUD XI, published 2010):

Molecular target: T1, factor Xa (FXa, Kordia) (UniProt P00742 41-179; P00742 235-488, limits assumed)
T1 construct: The bovine factor Xa of the Rotachrom kit is a different reagent and is not used here
Test: ratio of kon for FXa inhibition against plasma AT, with pentasaccharide
Method: In a second time FXa residual activity is measured by adding 190 μl of S2765 (200 μM) to 10 μl of previous mixture. Initial rate of substrate hydrolysis is then plotted as the function of incubation time with inhibitor and curves are fitted with equation 1 to determine kon (gray lines). Time expressed in minute is plotted in abscissa; substrate hydrolysis rate expressed in OD/s⁻¹ is plotted in ordinate.

T1 sequence (P00742 41-179 limits assumed, form in doubt, chain 1 of 2): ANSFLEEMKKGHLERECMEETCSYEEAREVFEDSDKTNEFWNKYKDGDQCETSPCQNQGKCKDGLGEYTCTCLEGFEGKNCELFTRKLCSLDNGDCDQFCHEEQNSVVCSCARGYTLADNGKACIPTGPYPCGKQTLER
T1 sequence (P00742 235-488 limits assumed, form in doubt, chain 2 of 2): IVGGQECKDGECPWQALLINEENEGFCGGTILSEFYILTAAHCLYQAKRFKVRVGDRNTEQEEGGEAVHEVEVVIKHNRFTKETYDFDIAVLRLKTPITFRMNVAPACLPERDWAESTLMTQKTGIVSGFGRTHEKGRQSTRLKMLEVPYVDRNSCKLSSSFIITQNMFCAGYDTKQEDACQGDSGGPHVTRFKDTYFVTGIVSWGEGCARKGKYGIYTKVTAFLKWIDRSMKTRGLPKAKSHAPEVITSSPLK

fold lower kon than plasma AT: ≥ 7600 fold
B1: AT-N135Q-Pro394 (other)
chain: HGSPVDICTAKPRDIPMNPMCIYRSPEKKATEDEGSEQKIPEATNRRVWELSKANSRFATTFYQHLADSKNDNDNIFLSPLSISTAFAMTKLGACNDTLQQLMEVFKFDTISEKTSDQIHFFFAKLNCRLYRKAQKSSKLVSANRLFGDKSLTFNETYQDISELVYGAKLQPLDFKENAEQSRAAINKWVSNKTEGRITDVIPSEAINELTVLVLVNTIYFKGLWKSKFSPENTRKELFYKADGESCSASMMYQEGKFRYRRVAEGTQVLELPFKGDDITMVLILPKPEKSLAKVEKELTPEVLQEWLDELEEMMLVVHMPRFRIEDGFSLKEQLQDMGLVDLFSPEKSKLPGIVAEGRDDLYVSDAFHKAFLEVNEEGSEAAASTAVVIAGRPSLNPNRVTFKANRPFLVFIREVPLNTIIFMGRVANPCVK
notes: Recombinant double mutant antithrombin made in HEK-293 or BHK-21 cells, secreted
